Measured values as given in patent US8114412B2, “T. cruzi-derived neurotrophic agents and methods of use therefor” (priority 1999, dated 2012).

How the values were obtained:
[1] = system: peripheral blood mononuclear cells (PBMC); assay: IL-6 secretion by PBMC (ELISA); type: cell-based, human; design: IL-6 secretion by PBMC: dose or concentration left out as unconfirmed; conditions: 24 hrs culture
Description: (§1) Primary cultures of human intestinal microvascular endothelial cells (HIMEC) isolated from normal jejunal mucosa/submucosal tissue were prepared as described (Strong et al., Gastroenterology 114: 1244-1256 (1998)). The HIMEC were cultured in fibronectin-coated plasticware in MCDB medium (Sigma) supplemented with 20% FBS, 90 μg/ml heparin and 50 μg/ml endothelial cell growth factor (Sigma). T-24 cells (ATCC Accession No. HTB-4) were cultured in M199 medium supplemented with 10% FBS. PBMC were purified by Ficoll-Paque gradient as described (Current Protocols in Immunology, pp 7.1.1-7.1.2). Vero cells (ATCC Accession No. CCL-81) were grown in RPMI medium with 5% Nu serum and infected with the Silvio X-10/4 of T. cruzi as described previously (Chuenkova et al., J. Exp. Med. 181: 1693-1703, (1995)).
(§2) Endothelial cells and T-24 cells were plated on 24-well plates at a density of 1×10^3 cells/well, while peripheral blood mononuclear cells (PBMC) were plated in the similar wells at 1×10^6/well. Triplicat cultures of cells were incubated test agents for a predetermined amount of time. […] Cytokines and chemokines released in the culture supernatants were measured by ELISA assay following the instructions of the manufacturer (Endogen). The cytokines tested were IL-1β, IL-4, IL-8, IL-10, IL-12, IFN-γ, TNF-α, and the chemokines RANTES and MCP-1. Negative controls were cells incubated in medium containing polymixin B at 10 μg/ml, and positive controls were cells incubated with bacterial LPS at the low ng/ml range (for PBMC or HIMEC) or in the μg/ml range for carcinoma T-24 cells. In some experiments, IL-1β, or TNFα were used as positive control for cytokine release.
TR peptides (Table 2) were synthesized at the Tufts Synthesis Facility (Boston, Mass.). Each peptide was purified by HPLC, and the number of amino acids and molecular weight of each peptide verified by mass spectrometry. Peptides were dissolved in growth medium (10% FCS in RPMI) and added at various concentrations to 1×10^6 PBMC/well in 24-well plates. After 24 hrs, IL-6 was assayed by ELISA in the conditioned supernatants.

Trans-sialidase assay = type: biochemical
Description: The trans-sialidase assay was performed as described (Scudder et al., J. Biol. Chem. 268:9886-9891 (1993)) with slight modifications. Various amounts of intact enzyme or enzyme fragments were added to 50 mM PBS, Ph 7.2, containing 15% fetal calf serum and […] of [^14C]N-acetyllactosamine (4×10^5 dpm), 50 μg BSA and 0.02% NaN3 in a volume of 60 μl. After incubation for a predetermined amount of time at room temperature, the reaction mixture was diluted to 1.0 ml with distilled water and applied to a column containing 1.0 ml Q-Sepharose equilibrated with water. Sialylated product was eluted with 1 M NaCi and quantified by scintillation counting.
TS enzymatic activity was measured by the sialylation of the acceptor ^14C-labeled N-acetyllactosamine on anion exchange resins (Scudder, P. et. al., J. Biol. Chem. 268:9886-9891 (1993)). Recombinant TSA-1, was expressed on insect sf9 cells and purified from serum-free medium by ion exchange chromatography (monoQ) and preparative SDS-PAGE (Wrightsman, R. A. et al., J. Immunol., 153:3148-3154 (1994).

[2] = system: human bladder carcinoma T-24 cell line; assay: IL-6 secretion by T-24 carcinoma cells (ELISA); type: cell-based; conditions: 24 hours culture
Description: as §1, §2

[3] = Martin et al. 1996; cited from earlier work
Bcl-2 mRNA in PC12 cells = assay: RT-PCR of Bcl-2 gene transcripts in PC12 cells; type: cell-based, rat; conditions: TS 2.5 ng/ml, CNTF 50 ng/ml, alone or combined, 17 hours
Description: Total RNA was extracted from PC12 cells by the acid guanidinum isothiocyanate method (Chomchinski, P., et al., Biotechniques 15: 532-535 (1993)) using TRI-reagent (Molecular Research Center, Inc.). cDNA synthesis was performed according to the instruction of the manufacturer (Gibco-BRL). Reverse transcription reactions were carried out for 50 minutes at 42° C. and were heated to 70° C. for 15 minutes to terminate the reaction using a MiniCycler (MJ Research). Samples were cooled to 4° C. and stored at −20° C. until use.
PCR reactions were performed in 50 μl containing 1.5 μl of template DNA (corresponding to cDNA synthesized from 100 ng of total RNA), 1×PCR buffer, 100 μM of deoxynucleotides, 2.5 mM MgCl2, 10 mM DTT, 10 pM of Bcl-2 primers, and 2 U of Taq DNA polymerase (Gibco-BRL). The synthetic DNA primers for the rat Bcl-2 were: 5′-[…]-3′ (SEQ ID NO:8) and 5′-[…]-3′(SEQ ID NO:9) to give a PCR product of 566 bp. The sequences for synthetic GAPDH DNA primers (Wong, H., et al., Anal. Biochem. 223: 251-258 (1994)) were: 5′-[…]-3′ (SEQ ID NO:10) and 5′-[…]-3′ (SEQ ID NO:11) giving a PCR produce of 306 base pairs. Amplifications were carried out in MiniCycler (MJ Research) using following conditions: 98° C. for 5 minutes (initial heat denaturation), 3 cycles of 94° C. for 1 minute, 63° C. for 1 minute, 72° C. for 1.5 minutes; 3 cycles of 94° C. for 1 minutes, 60° C. for 1 minute, 72° C. for 1.5 minutes, followed by 72° C. for 10 minutes. Primers for GAPDH (10 pM) were added at cycle 7 by the “primer-dropping” method. Aliquots of PCR reaction products were separated by electrophoresis in 2% agarose gels (Ultrapure, Gibco-BRL), containing 0.2 μg/ml ethidium bromide. Gels were analyzed by computerized densitometric scanning using Gel doc 1000 (Bio Rad) and Molecular Analyst Software, version 2.1.

PC12 cells [4] = assay: Reversal of TS-induced neuroprotection by PI-3 kinase inhibitors in PC12 cells; type: cell-based, rat; conditions: RPMI+CNTF 50 ng/ml; similar to RPMI alone
Description: (§3) Protection against apoptosis of PC12 cells in serum-free medium containing a test agent (agent N)(e.g., protection induced by TS, TS fragments, NGF or other growth factors), was calculated by the formula: 100%-[(apoptosis(%) of cells kept in RPMI containing test agent N÷apoptosis (%) of cells kept in RPMI)×100%]. Testing the effect of wortmannin (Sigma) and LY294002 (Sigma) in inhibiting the neuroprotection of TS was performed following the protocol described by others (Yao and Cooper, Science, 267:2003-2006 (1995); D'Mello et al., J. Neurosci 17:1548-1560 (1997)). In brief, PC12 cells were switched from growth medium to RPMI without and with TS or various other growth factors. After 24 hr, wortmannin and LY294002 were added to the cultures. After another 24 hrs, cells were examined for apoptosis by the DAPI assay, as above.

PC12 cells [5] = assay: Trophic factor withdrawal-induced apoptosis of PC12 cells (DAPI/TUNEL); type: cell-based, rat; conditions: serum-free RPMI-1640/0.2% BSA, 17 hours, DAPI or TUNEL
From the text: PC12 cells were obtained from ATCC (Manassas, Va. (Accession No. CRL-1721)) and cultured on collagen-coated dishes in RPMI 1640 supplemented with 10% horse serum and 5% fetal bovine serum (Greene, L. A. and Tishler, A. S., Proc. Natl. Acad. Sci. USA, 73: 2424-2428 (1976)). For differentiation and survival experiments, cells were washed three times in serum-free RPMI/0.2% BSA, plated in the same medium in collagen-coated plastic dishes at 2×10^5/ml, without and with growth factors, TS, recombinant proteins, synthetic peptides, for the time and concentrations indicated in the Figures.
Cell staining with 4,6-diamino-2-phenylindole (DAPI). Cells were fixed with 4% formaldehyde in PBS for 5 minutes, washed with PBS, stained with 10 μg/ml DAPI (Sigma) for 2 minutes, washed with PBS, and visualized under UV light using a fluorescent microscope. About 300-400 cells were examined under the microscope to determine the percentage of apoptotic cells.
Cell DNA nick end labeling (TUNEL) (Gavrieli, Y., et al., J. Cell. Biol. 119: 493-501 (1992)) assay was performed using a kit purchased from Boehringer Mannheim as described by the manufacturer.
as §3

B1: TS-154: recombinant catalytically active trans-sialidase construct from clone 154 with 5 tandem repeat units (protein, listed as Trypanosoma cruzi)
chain: KKKQVFSKIFYSEDEGKTWKFGEGRSDFGCSEPVALEWEGKLIINTRVDYRRRLVYESSDMGNSWVEAVGTLSRVWGPSPKSNQPGSQSSFTAVTIEGMRVMLFTHPLNFKGRWLRDRLNLWLTDNQRIYNVGQVSIGDENSAYSSVLYKDDKLYCLHEINSNEVYSLVFARLVGELRIIKSVLQSWKNWDSHLSSICTP
[1]
  IL-6 secretion by PBMC: as powerful as enzymatically-inactive TS-H32 in stimulating IL-6 secretion
Trans-sialidase assay
  trans-sialidase enzymatic activity: enzymatically-active
[2]
  IL-6 secretion by T-24 cells: as powerful as enzymatically-inactive TS-H32 in stimulating IL-6 secretion

B2: CNTF: human ciliary neurotrophic factor; recombinant human and rat CNTF (protein, UniProt P26441 1-200, looked up)
Ciliary neurotrophic factor: MAFTEHSPLTPHRRDLCSRSIWLARKIRSDLTALTESYVKHQGLNKNINLDSADGMPVASTDQWSELTEAERLQENLQAYRTFHVLLARLLEDQQVHFTPTEGDFHQAIHTLLLQVAAFAYQIEELMILLEYKIPRNEADGMPINVGDGGLFEKKLWGLKVLQELSQWTVRSIHDLRFISSHQTGIPARGSHYIANNKKM
[3]
  undesirable side effects of administration: muscle atrophy, cachexia and anorexia
Bcl-2 mRNA in PC12 cells
  bcl-2 gene expression in PC12 cells: did not induce bcl-2 gene expression individually
PC12 cells [4]
  viability of PC12 cells: ~33%
PC12 cells [5]
  protection of PC12 cells from apoptosis induced by trophic factor withdrawal: little, if any, protection
